We go through 3 molecules from patent US20200038462A1, “METHODS AND COMPOSITIONS OF OTC CONSTRUCTS AND VECTORS” (priority 2018, published 2020).

To fix the notation:
B1: CO9-1: hOTC construct; CO9 re-optimized by GeneArt, SEQ ID NO:9 (nucleic acid)
DNA: GTCGACGCCGCCACCATGCTGTTTAATCTGAGAATCCTGCTGAACAATGCTGCTTTCCGCAATGGGCACAACTTTATGGTCCGAAACTTCCGATGTGGACAGCCTCTGCAGAACAAGGTGCAGCTGAAGGGCCGGGACCTGCTGACCCTGAAGAATTTCACAGGCGAGGAGATCAAATACATGCTGTGGCTGAGCGCCGATCTGAAGTTTAGGATCAAGCAGAAGGGCGAGTATCTGCCACTGCTGCAGGGCAAGTCCCTGGGCATGATCTTCGAGAAGCGGAGCACCCGGACAAGACTGAGCACCGAGACAGGATTCGCACTGCTGGGAGGACACCCATGCTTTCTGACAACACAGGACATCCACCTGGGCGTGAACGAGTCTCTGACCGACACAGCACGGGTGCTGAGCTCCATGGCAGATGCCGTGCTGGCCAGAGTGTACAAGCAGAGCGACCTGGATACCCTGGCCAAGGAGGCCTCCATCCCCATCATCAATGGCCTGTCTGACCTGTATCACCCAATCCAGATCCTGGCCGATTACCTGACCCTGCAGGAGCACTATTCTAGCCTGAAGGGCCTGACACTGAGCTGGATCGGCGACGGCAACAATATCCTGCACAGCATCATGATGTCCGCCGCCAAGTTTGGAATGCACCTGCAGGCAGCAACCCCAAAGGGATACGAGCCCGATGCCTCCGTGACAAAGCTGGCCGAGCAGTATGCCAAGGAGAACGGCACCAAGCTGCTGCTGACAAATGACCCACTGGAGGCAGCACACGGAGGAAACGTGCTGATCACCGATACATGGATCTCTATGGGCCAGGAGGAGGAGAAGAAGAAGCGGCTGCAGGCCTTCCAGGGCTACCAGGTGACCATGAAGACAGCCAAGGTGGCCGCCTCTGATTGGACCTTTCTGCACTGTCTGCCCCGGAAGCCTGAGGAGGTGGACGATGAGGTGTTCTATTCCCCTCGGAGCCTGGTGTTCCCAGAGGCAGAGAATCGCAAGTGGACAATCATGGCCGTGATGGTCTCCCTGCTGACTGACTACTCCCCACAGCTGCAGAAGCCCAAGTTTTGATAAGAATTC
B2: CO9-2: hOTC construct; CO9 re-optimized by IDT, SEQ ID NO:10 (nucleic acid)
DNA: GTCGACGCCGCCACCATGCTCTTCAATCTCCGAATACTCCTGAATAATGCGGCATTCAGAAATGGGCACAATTTTATGGTGCGAAATTTTCGATGTGGGCAGCCCTTGCAAAATAAAGTACAACTTAAAGGCAGAGATCTTCTTACGCTCAAAAACTTTACCGGCGAAGAGATTAAGTATATGTTGTGGCTGTCTGCTGACCTTAAATTCCGAATAAAACAGAAAGGCGAATACCTTCCGCTCCTCCAAGGGAAATCTCTTGGGATGATTTTCGAGAAGAGATCTACGCGCACGCGGCTTTCAACGGAAACTGGATTCGCACTCTTGGGCGGCCACCCATGTTTTCTGACTACTCAAGATATTCACTTGGGAGTAAATGAGTCACTTACTGACACGGCAAGAGTGCTCTCTAGCATGGCTGATGCAGTGCTGGCTAGAGTCTATAAACAATCCGACCTGGATACACTCGCCAAGGAAGCTTCAATACCAATAATCAACGGGTTGTCTGACTTGTACCACCCTATCCAAATCTTGGCCGATTATTTGACACTCCAGGAACACTACTCAAGTCTGAAGGGACTTACGCTTAGCTGGATAGGTGATGGTAACAACATCCTTCATAGCATTATGATGTCAGCCGCCAAATTCGGCATGCATCTGCAAGCAGCGACTCCCAAGGGCTATGAGCCTGATGCCTCAGTCACCAAACTGGCGGAGCAGTACGCTAAAGAGAATGGGACGAAGCTTTTGCTGACGAACGATCCCCTGGAGGCGGCTCACGGGGGAAATGTGCTTATCACGGATACCTGGATAAGTATGGGGCAGGAGGAAGAAAAAAAAAAGCGATTGCAAGCCTTTCAAGGTTACCAGGTTACAATGAAAACTGCGAAAGTCGCCGCATCTGACTGGACTTTTCTGCACTGTCTTCCGAGAAAGCCGGAAGAGGTGGACGACGAAGTGTTCTACTCTCCGCGCTCTCTCGTGTTTCCTGAAGCAGAGAACCGAAAGTGGACCATAATGGCGGTAATGGTCAGCCTCTTGACTGATTATTCCCCTCAGCTGCAGAAGCCAAAGTTTTGATAAGAATTC
B3: CO6-1: hOTC construct; CO6 re-optimized by GeneArt, SEQ ID NO:6 (nucleic acid)
DNA: GTCGACGCCGCCACCATGCTGTTCAACCTGCGGATCCTGCTGAACAACGCCGCCTTCAGAAACGGCCACAACTTCATGGTCCGAAACTTCAGATGCGGCCAGCCTCTGCAGAACAAGGTGCAGCTGAAGGGCAGAGATCTGCTGACCCTGAAGAACTTCACCGGCGAAGAGATCAAATACATGCTGTGGCTGAGCGCCGACCTGAAGTTCCGGATTAAGCAGAAGGGCGAGTACCTGCCACTGCTGCAGGGAAAGTCTCTGGGCATGATCTTCGAGAAGCGGAGCACCAGAACCAGACTGAGCACCGAGACAGGCTTTGCCCTGCTCGGAGGACACCCCTGCTTTCTGACAACACAGGATATCCACCTGGGCGTGAACGAGAGCCTGACCGATACAGCCAGAGTGCTGAGCAGCATGGCTGATGCCGTGCTGGCCAGAGTGTACAAGCAGAGCGATCTGGACACCCTGGCCAAAGAGGCCAGCATTCCCATCATCAACGGCCTGAGCGACCTGTATCACCCCATCCAGATCCTGGCCGACTACCTGACACTGCAAGAGCACTACAGCAGCCTGAAGGGACTGACCCTGTCTTGGATCGGCGACGGCAACAACATCCTGCACTCTATTATGATGAGCGCCGCCAAGTTCGGAATGCACCTGCAGGCCGCTACACCCAAGGGCTATGAGCCTGATGCCAGCGTGACAAAGCTGGCCGAGCAGTACGCCAAAGAGAACGGCACAAAGCTGCTGCTGACCAACGATCCCCTGGAAGCTGCCCACGGCGGCAATGTGCTGATCACCGATACCTGGATCTCTATGGGCCAAGAGGAAGAGAAGAAGAAGCGGCTGCAGGCCTTCCAGGGCTACCAAGTGACAATGAAGACCGCCAAGGTGGCCGCCAGCGATTGGACCTTTCTGCACTGCCTGCCTCGGAAGCCTGAAGAGGTGGACGACGAGGTGTTCTACAGCCCTAGAAGCCTGGTGTTCCCCGAGGCCGAGAACAGAAAGTGGACCATCATGGCTGTGATGGTGTCCCTGCTGACCGACTACTCTCCCCAGCTGCAGAAGCCCAAGTTCTGATAAGAATTC

In this data set the test system is HUH7 hepatocellular carcinoma cell line. Briefly: OTC protein expression in transfected HUH7 cells, Western blot. The format is cell-based, human. To be noted: FIGS. 14-15. An excerpt: The wt-hOTC was codon-optimized (CO) with different algorithms. The optimization process is aimed at improving translation and stability of the OTC mRNA by changing the nucleotide sequence while keeping the amino acid primary sequence unvaried. The wild-type OTC cDNA sequence and the codon-optimized (CO) LW4 sequence from WO 2015/138357 patent A2 (Wang L., Wilson J. M.) were also synthesized, to be used as comparison control (CO1). The nucleotide sequence of the different CO cDNAs differs with a range of 30-20% from the WT cDNA sequence. The vectors were then packaged into the AAV8 serotype and used to transduce Huh7 cells. Huh7 cells, co-transfected with the OTC constructs and the pGG2-eGFP plasmid (to normalize for transfection efficiency), were used to generate total RNA and proteins. mRNA, protein, and activity levels were analyzed using qRT-PCR and Western blotting.
The human hepatocellular carcinoma cell line HUH7 was used to evaluate the expression levels of AAV8-hOTC-CO constructs. The AAV8-hOTC-CO1 (C01), AAV8-hOTC-CO2 (CO2), AAV8-hOTC-CO3 (CO3), AAV8-hOTC-006 (CO6), AAV8-hOTC-CO7 (CO7), AAV8-hOTC-009 (CO9) construct plasmids, together with a pGFP plasmid as an internal control, were transiently co-transfected in HUH7 cells with Lipofectamine (Lipofectamine 2000, Thermo Fisher Scientific). Twenty-four hours post-transfection, total protein lysates were prepared and analyzed for OTC expression by Western blot analysis.
For B1, the “OTC protein expression levels compared to hOTC-wt (in words)” value is “significantly reduced”.

Regarding B2, the “OTC protein expression levels compared to hOTC-wt (in words)” value was “significantly reduced”. On to B3, for which the “OTC protein expression levels compared to hOTC-wt (in words)” value is given as “significantly reduced”.
